Bridge positions count the residues as written; N and C are the ends. Square brackets hold non-standard residues; d marks the D form. Ends that are not written are not given here. Pen = CC(C)(S)[C@H](N)C(=O)O; hCys = N[C@@H](CCS)C(=O)O
B1: Compound 9: Ac-Arg-cyclo[Cys-D-Ala-Asn-D-Phe-Arg-Trp-Cys]-NH2 (peptide)
peptide: Ac-RC[dA]N[dF]RWC-NH2
modifications: disulfide 2-8
SMILES: CC(=O)N[C@@H](CCCNC(=N)N)C(=O)N[C@H]1CSSC[C@@H](C(N)=O)NC(=O)[C@H](Cc2c[nH]c3ccccc23)NC(=O)[C@H](CCCNC(=N)N)NC(=O)[C@@H](Cc2ccccc2)NC(=O)[C@H](CC(N)=O)NC(=O)[C@@H](C)NC1=O
B2: Compound 1: Ac-Arg-cyclo[Cys-D-Leu-His-D-Phe-Arg-Trp-Cys]-NH2 (peptide)
peptide: Ac-RC[dL]H[dF]RWC-NH2
modifications: disulfide 2-8
B3: Peptide 1 (peptide)
peptide: RCAHFRWC
modifications: cysteine pairing not given here; also: further groups not given here
B4: Compound 17: Ac-Arg-cyclo[hCys-D-Ala-D-Phe-Arg-Trp-Pen]-NH2 (peptide)
peptide: Ac-R[hCys][dA][dF]RW[Pen]-NH2
modifications: disulfide 2-7
SMILES: CC(=O)N[C@@H](CCCNC(=N)N)C(=O)N[C@H]1CCSSC(C)(C)[C@@H](C(N)=O)NC(=O)[C@H](Cc2c[nH]c3ccccc23)NC(=O)[C@H](CCCNC(=N)N)NC(=O)[C@@H](Cc2ccccc2)NC(=O)[C@@H](C)NC1=O
B5: Compound 8: Ac-Arg-cyclo[Cys-D-Ala-Gln-D-Phe-Arg-Trp-Cys]-NH2 (peptide)
peptide: Ac-RC[dA]Q[dF]RWC-NH2
modifications: disulfide 2-8
SMILES: CC(=O)N[C@@H](CCCNC(=N)N)C(=O)N[C@H]1CSSC[C@@H](C(N)=O)NC(=O)[C@H](Cc2c[nH]c3ccccc23)NC(=O)[C@H](CCCNC(=N)N)NC(=O)[C@@H](Cc2ccccc2)NC(=O)[C@H](CCC(N)=O)NC(=O)[C@@H](C)NC1=O
B6: Compound 10: Ac-Arg-cyclo[Cys-D-Ala-Arg-D-Phe-Arg-Trp-Cys]-NH2 (peptide)
peptide: Ac-RC[dA]R[dF]RWC-NH2
modifications: disulfide 2-8
SMILES: CC(=O)N[C@@H](CCCNC(=N)N)C(=O)N[C@H]1CSSC[C@@H](C(N)=O)NC(=O)[C@H](Cc2c[nH]c3ccccc23)NC(=O)[C@H](CCCNC(=N)N)NC(=O)[C@@H](Cc2ccccc2)NC(=O)[C@H](CCCNC(=N)N)NC(=O)[C@@H](C)NC1=O
B7: Compound 15: Ac-Arg-cyclo[hCys-Ala-D-Phe-Arg-Trp-Cys]-NH2 (peptide)
peptide: Ac-R[hCys]A[dF]RWC-NH2
modifications: disulfide 2-7
SMILES: CC(=O)N[C@@H](CCCNC(=N)N)C(=O)N[C@H]1CCSSC[C@@H](C(N)=O)NC(=O)[C@H](Cc2c[nH]c3ccccc23)NC(=O)[C@H](CCCNC(=N)N)NC(=O)[C@@H](Cc2ccccc2)NC(=O)[C@H](C)NC1=O
B8: Compound 7: Ac-Arg-cyclo[Cys-D-Ala-Trp-D-Phe-Arg-Trp-Cys]-NH2 (peptide)
peptide: Ac-RC[dA]W[dF]RWC-NH2
modifications: disulfide 2-8
SMILES: CC(=O)N[C@@H](CCCNC(=N)N)C(=O)N[C@H]1CSSC[C@@H](C(N)=O)NC(=O)[C@H](Cc2c[nH]c3ccccc23)NC(=O)[C@H](CCCNC(=N)N)NC(=O)[C@@H](Cc2ccccc2)NC(=O)[C@H](Cc2c[nH]c3ccccc23)NC(=O)[C@@H](C)NC1=O

What was measured:
Assay in all cases: cell-based or functional assay
melanocortin-1 receptor = melanocortin-1 receptor (human, UniProt Q01726 1-317)
melanocortin-5 receptor = melanocortin-5 receptor (human, UniProt P33032 1-325)
melanocortin-4 receptor = melanocortin-4 receptor (human, UniProt P32245 1-332)
melanocortin-3 receptor = melanocortin-3 receptor (human, UniProt P41968 1-323)
melanocortin-3 receptor, sequence (P41968 whole entry): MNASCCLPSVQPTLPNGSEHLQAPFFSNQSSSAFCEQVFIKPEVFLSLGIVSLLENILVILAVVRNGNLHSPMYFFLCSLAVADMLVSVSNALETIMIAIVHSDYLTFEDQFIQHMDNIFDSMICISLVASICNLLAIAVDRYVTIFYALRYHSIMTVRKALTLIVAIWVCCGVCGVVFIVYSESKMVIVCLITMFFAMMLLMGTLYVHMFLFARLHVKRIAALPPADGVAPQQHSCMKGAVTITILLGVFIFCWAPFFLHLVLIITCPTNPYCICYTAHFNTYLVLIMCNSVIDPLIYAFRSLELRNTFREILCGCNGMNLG

melanocortin-5 receptor, sequence (P33032 whole entry): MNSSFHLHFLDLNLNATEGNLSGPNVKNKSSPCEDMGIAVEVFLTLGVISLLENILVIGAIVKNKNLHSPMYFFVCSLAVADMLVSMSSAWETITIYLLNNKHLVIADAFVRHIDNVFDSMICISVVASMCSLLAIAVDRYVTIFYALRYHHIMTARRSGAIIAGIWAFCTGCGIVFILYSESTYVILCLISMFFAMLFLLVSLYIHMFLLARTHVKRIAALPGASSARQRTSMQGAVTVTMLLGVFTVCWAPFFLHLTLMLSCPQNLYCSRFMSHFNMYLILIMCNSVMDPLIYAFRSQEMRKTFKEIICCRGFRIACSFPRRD
melanocortin-1 receptor, sequence (Q01726 whole entry): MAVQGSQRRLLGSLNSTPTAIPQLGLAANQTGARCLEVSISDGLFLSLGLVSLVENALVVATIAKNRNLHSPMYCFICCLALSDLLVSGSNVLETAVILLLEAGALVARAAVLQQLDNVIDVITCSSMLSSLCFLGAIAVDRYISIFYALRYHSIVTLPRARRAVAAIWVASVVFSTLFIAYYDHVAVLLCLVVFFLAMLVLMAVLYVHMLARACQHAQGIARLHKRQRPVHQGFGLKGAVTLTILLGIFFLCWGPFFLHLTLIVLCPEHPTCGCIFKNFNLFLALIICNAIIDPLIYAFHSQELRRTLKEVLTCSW
melanocortin-4 receptor, sequence (P32245 whole entry): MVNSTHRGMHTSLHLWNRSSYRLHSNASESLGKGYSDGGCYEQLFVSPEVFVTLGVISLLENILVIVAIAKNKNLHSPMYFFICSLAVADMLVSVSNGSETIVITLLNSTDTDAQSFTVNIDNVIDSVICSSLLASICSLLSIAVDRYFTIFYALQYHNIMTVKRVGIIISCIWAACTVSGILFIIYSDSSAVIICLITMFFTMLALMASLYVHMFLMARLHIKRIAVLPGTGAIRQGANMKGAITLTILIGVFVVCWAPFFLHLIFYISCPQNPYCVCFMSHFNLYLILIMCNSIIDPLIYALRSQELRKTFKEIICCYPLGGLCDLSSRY

| Binder | Ratios of EC50 values: MC1/4 (melanocortin-1 receptor) | cAMP Assay (EC-50) (melanocortin-1 receptor) [nM] | Ratios of EC50 values: MC5/4 (melanocortin-5 receptor) | cAMP Assay (EC-50) (melanocortin-5 receptor) [nM] | cAMP Assay (EC-50) (melanocortin-4 receptor) [nM] | Ratios of EC50 values: MC3/4 (melanocortin-3 receptor) | cAMP Assay (EC-50) (melanocortin-3 receptor) [nM] |
| --- | --- | --- | --- | --- | --- | --- | --- |
| B1 | 90 | 248 | 530 | 1490 | 3 | 30 | 81 |
| B2 | 0.68 | 0.47 | 130 | 91 | 0.7 | 1.13 | 0.79 |
| B3 | – | – | – | 1600 | – | – | – |
| B4 | 15 | 195 | 159 | 2180 | 13.7 | 17 | 233 |
| B5 | 40 | 71 | 155 | 255 | 1.6 | 5 | 8.6 |
| B6 | 2.31 | 6.2 | – | – | 2.7 | 1.45 | 3.9 |
| B7 | 15 | 4 | 161 | 42 | 0.26 | 3.8 | 1 |
| B8 | 8 | 273 | 7 | 259 | 34 | > 290 | > 10000 |

From US20160022764A1 (RHYTHM PHARMACEUTICALS, published 2016)
